Data published in US20020177203A1, “Alpha2 subunit of prolyl 4-hydroxylase” (priority 1996, published 2002).

Legend:
[1] = target: mouse/human type 2 prolyl 4-hydroxylase tetramer (mouse; human) (UniProt P07237); assay: cell-based or functional assay
[2] = target: human type 1 prolyl 4-hydroxylase tetramer (human) (UniProt P13674); assay: inhibition of prolyl 4-hydroxylase activity (2-oxo[1-14C]glutarate decarboxylation), insect cell extract
human type 1 prolyl 4-hydroxylase tetramer (human), sequence (P13674 18-534, chain 1 of 2): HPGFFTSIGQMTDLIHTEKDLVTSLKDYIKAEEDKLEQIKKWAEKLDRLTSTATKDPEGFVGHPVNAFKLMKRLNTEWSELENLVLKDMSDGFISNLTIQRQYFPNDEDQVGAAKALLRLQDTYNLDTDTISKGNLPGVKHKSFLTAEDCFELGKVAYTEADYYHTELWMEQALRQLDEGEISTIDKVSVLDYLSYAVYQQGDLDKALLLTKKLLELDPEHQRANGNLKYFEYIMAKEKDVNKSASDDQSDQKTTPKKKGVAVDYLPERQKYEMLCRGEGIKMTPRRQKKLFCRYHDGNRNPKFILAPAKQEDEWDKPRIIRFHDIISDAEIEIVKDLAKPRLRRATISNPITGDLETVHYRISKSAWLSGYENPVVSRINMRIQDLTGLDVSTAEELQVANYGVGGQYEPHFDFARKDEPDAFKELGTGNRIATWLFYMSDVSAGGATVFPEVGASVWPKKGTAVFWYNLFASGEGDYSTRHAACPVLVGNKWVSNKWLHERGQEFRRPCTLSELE
human type 1 prolyl 4-hydroxylase tetramer (human), sequence (P07237 18-508, chain 2 of 2, further chain): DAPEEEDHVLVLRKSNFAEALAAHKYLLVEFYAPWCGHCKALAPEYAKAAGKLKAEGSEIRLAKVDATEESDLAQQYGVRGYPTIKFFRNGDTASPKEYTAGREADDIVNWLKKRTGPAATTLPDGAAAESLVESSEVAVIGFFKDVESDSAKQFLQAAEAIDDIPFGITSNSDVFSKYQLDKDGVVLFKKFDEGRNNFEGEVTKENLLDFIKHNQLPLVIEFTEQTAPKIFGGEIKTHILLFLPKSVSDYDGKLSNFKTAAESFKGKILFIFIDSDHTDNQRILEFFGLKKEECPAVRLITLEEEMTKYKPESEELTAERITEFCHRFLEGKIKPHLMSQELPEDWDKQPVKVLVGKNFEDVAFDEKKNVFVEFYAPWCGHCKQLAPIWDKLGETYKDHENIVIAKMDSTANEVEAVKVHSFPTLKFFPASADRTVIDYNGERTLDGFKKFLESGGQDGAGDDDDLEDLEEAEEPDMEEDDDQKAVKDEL

mouse/human type 2 prolyl 4-hydroxylase tetramer (mouse; human), sequence (chain, as listed by the source, chain 1 of 2): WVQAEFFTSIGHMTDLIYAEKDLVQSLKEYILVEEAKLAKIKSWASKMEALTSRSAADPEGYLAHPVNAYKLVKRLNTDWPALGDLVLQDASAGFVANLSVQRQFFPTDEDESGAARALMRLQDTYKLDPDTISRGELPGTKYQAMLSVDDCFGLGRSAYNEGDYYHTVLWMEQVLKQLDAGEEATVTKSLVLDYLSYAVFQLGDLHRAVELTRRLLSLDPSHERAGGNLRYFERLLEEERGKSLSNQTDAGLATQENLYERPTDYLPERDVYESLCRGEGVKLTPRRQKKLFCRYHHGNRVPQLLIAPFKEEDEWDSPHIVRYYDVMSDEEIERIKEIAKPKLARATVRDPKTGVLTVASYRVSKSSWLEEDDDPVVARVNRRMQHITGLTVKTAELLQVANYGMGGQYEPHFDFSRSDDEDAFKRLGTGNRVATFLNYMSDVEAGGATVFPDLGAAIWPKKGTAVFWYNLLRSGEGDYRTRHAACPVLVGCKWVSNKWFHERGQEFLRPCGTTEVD
mouse/human type 2 prolyl 4-hydroxylase tetramer (mouse; human), sequence (P07237 18-508, chain 2 of 2): as the sequence (P07237 18-508, chain 2 of 2, further chain) above

Substance	IC50 (inhibition of prolyl 4-hydroxylase activity; printed in the Ki row) [1] [µM]	Ki [2] [µM]
Poly(L-proline), Mr 44,000 (peptide)	30	0.02
Poly(L-proline), Mr 7000 (peptide)	300	0.5
